Data reported in the supplement of paper PMC5998384.

System: HeLa Kyoto
Assay: melting temperature (median over replicates), in situ; higher = more thermally stable
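Note: HeLa Kyoto cells synchronized by double thymidine or nocodazole block, proteins quantified by TMT10plex mass spectrometry, three independent biological replicates.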

Row | Substance | melting temperature (cell cycle stage: mitosis) [°C] | melting temperature (cell cycle stage: G1/S) [°C]
1 | FLNC | 55 | 
2 | MAEVPPGPSSLLPPPAPPAPAAVEPRCPFPAGAALACCSEDEEDDEEHEGGGSRSPAGGESATVAAKGHPCLRCPQPPQEQQQLNGLISPELRHLRAAASLKSKVLSVAEVAATTATPDGGPRATATKGAGVHSGERPPHSLSSNARTAVPSPVEAAAASDPAAARNGLAEGTEQEEEEEDEQVRLLSSSLTADCSLRSPSGREVEPGEDRTIRYVRYESELQMPDIMRLITKDLSEPYSIYTYRYFIHNWPQLCFLAMVGEECVGAIVCKLDMHKKMFRRGYIAMLAVDSKYRRNGIGTNLVKKAIYAMVEGDCDEVVLETEITNKSALKLYENLGFVRDKRLFRYYLNGVDALRLKLWLR [NAA30] |  | 51.9
3 | MAGSDTAPFLSQADDPDDGPVPGTPGLPGSTGNPKSEEPEVPDQEGLQRITGLSPGRSALIVAVLCYINLLNYMDRFTVAGVLPDIEQFFNIGDSSSGLIQTVFISSYMVLAPVFGYLGDRYNRKYLMCGGIAFWSLVTLGSSFIPGEHFWLLLLTRGLVGVGEASYSTIAPTLIADLFVADQRSRMLSIFYFAIPVGSGLGYIAGSKVKDMAGDWHWALRVTPGLGVVAVLLLFLVVREPPRGAVERHSDLPPLNPTSWWADLRALARNPSFVLSSLGFTAVAFVTGSLALWAPAFLLRSRVVLGETPPCLPGDSCSSSDSLIFGLITCLTGVLGVGLGVEISRRLRHSNPRADPLVCATGLLGSAPFLFLSLACARGSIVATYIFIFIGETLLSMNWAIVADILLYVVIPTRRSTAEAFQIVLSHLLGDAGSPYLIGLISDRLRRNWPPSFLSEFRALQFSLMLCAFVGALGGAAFLGTAIFIEADRRRAQLHVQGLLHEAGSTDDRIVVPQRGRSTRVPVASVLI [SPNS1] | 62 | 
4 | MAHAHIQGGRRAKSRFVVCIMSGARSKLALFLCGCYVVALGAHTGEESVADHHEAEYYVAAVYEHPSILSLNPLALISRQEALELMNQNLDIYEQQVMTAAQKDVQIIVFPEDGIHGFNFTRTSIYPFLDFMPSPQVVRWNPCLEPHRFNDTEVLQRLSCMAIRGDMFLVANLGTKEPCHSSDPRCPKDGRYQFNTNVVFSNNGTLVDRYRKHNLYFEAAFDVPLKVDLITFDTPFAGRFGIFTCFDILFFDPAIRVLRDYKVKHVVYPTAWMNQLPLLAAIEIQKAFAVAFGINVLAANVHHPVLGMTGSGIHTPLESFWYHDMENPKSHLIIAQVAKNPVGLIGAENATGETDPSHSKFLKILSGDPYCEKDAQEVHCDEATKWNVNAPPTFHSEMMYDNFTLVPVWGKEGYLHVCSNGLCCYLLYERPTLSKELYALGVFDGLHTVHGTYYIQVCALVRCGGLGFDTCGQEITEATGIFEFHLWGNFSTSYIFPLFLTSGMTLEVPDQLGWENDHYFLRKSRLSSGLVTAALYGRLYERD [BTD] | 58 | 
5 | MAMEGYWRFLALLGSALLVGFLSVIFALVWVLHYREGLGWDGSALEFNWHPVLMVTGFVFIQGIAIIVYRLPWTWKCSKLLMKSIHAGLNAVAAILAIISVVAVFENHNVNNIANMYSLHSWVGLIAVICYLLQLLSGFSVFLLPWAPLSLRAFLMPIHVYSGIVIFGTVIATALMGLTEKLIFSLRDPAYSTFPPEGVFVNTLGLLILVFGALIFWIVTRPQWKRPKEPNSTILHPNGGTEQGARGSMPAYSGNNMDKSDSELNSEVAARKRNLALDEAGQRSTM [CYBRD1] | 53.6 | 
6 | MAPQRRAATKAPEGNGAAERRNRSSTKKDRAPREVQRLWQRPWLRTAGLGAGFVLTALLLWSSLGADDGVAEVLARRGEVVAGRFIEVPCSEDYDSHRRFEGCTPRKCGRGVTDVVITREEAERIRSVAEKGLSLGGSDGGASILDLHSGALSVGKHFVNLYRYFGDKIQNIFSEEDFRLYREVRQKVQLTIAEAFGISASSLHLTKPTFFSRINSTEARTAHDEYWHAHVDKVTYGSFDYTSLLYLSNYLEDFGGGRFMFMEEGANKTVEPRAGRVSFFTSGSENLHRVEKVHWGTRYAITIAFSCNPDHGIEDPAFP [OGFOD3] | 53.1 | 
7 | MARRRRRACIALFLVLLFAFGTLMGLRTLKAPDGLPALGPGLELAPFERRPEGAPAPAARAPAAPAAPPPPPPPPRTADPGGSPGPAPAEAEPAPVQSLRVYSDLHAFYYSWYGSPRREGHYIHWDHVMVPHWDPKISASYPRGRHSPPDDLGSSFYPELGPYSSRDPEVLREHMTQLKEAAIGVLVLSWYPPGMADDNGEPSDDLVPAILDTAHQYSIQVAFHIQPYKGRDDITVHDNIKYIIDTYGSHGAFYRYKNSMGKSLPLFYIYDSYLTSPEAWAHLLTPNGPHSIRNTPYDGVFIALLVEEGHTHDILAAGFDGMYTYFASNGFSFGSSHQNWKAVKNFCDANNLMFIPSVGPGYIDTSIRPWNNHNTRNRVNGKYYETALQAALTVRPEIVSITSFNEWHEGTQIEKAIPKKTPTRLYLDYLPHQPSLYLELTRRWAEHFIKEKEQWLM [MANEAL] | 54.1 | 
8 | MASRAGPRAAGTDGSDFQHRERVAMHYQMSVTLKYEIKKLIYVHLVIWLLLVAKMSVGHLRLLSHDQVAMPYQWEYPYLLSILPSLLGLLSFPRNNISYLVLSMISMGLFSIAPLIYGSMEMFPAAQQLYRHGKAYRFLFGFSAVSIMYLVLVLAVQVHAWQLYYSKKLLDSWFTSTQEKKHK [JAGN1] | 54.8 | 
9 | MATETVELHKLKLAELKQECLARGLETKGIKQDLIHRLQAYLEEHAEEEANEEDVLGDETEEEETKPIELPVKEEEPPEKTVDVAAEKKVVKITSEIPQTERMQKRAERFNVPVSLESKKAARAARFGISSVPTKGLSSDNKPMVNLDKLKERAQRFGLNVSSISRKSEDDEKLKKRKERFGIVTSSAGTGTTEDTEAKKRKRAERFGIA [SARNP] | 54.3 | 57.9
10 | MDEESLESALQTYRAQLQQVELALGAGLDSSEQADLRQLQGDLKELIELTEASLVSVRKSSLLAALDEERPGRQEDAEYQAFREAITEAVEAPAAARGSGSETVPKAEAGPESAAGGQEEEEGEDEEELSGTKVSAPYYSSWGTLEYHNAMVVGTEEAEDGSAGVRVLYLYPTHKSLKPCPFFLEGKCRFKENCRFSHGQVVSLDELRPFQDPDLSSLQAGSACLAKHQDGLWHAARITDVDNGYYTVKFDSLLLREAVVEGDGILPPLRTEATESDSDSDGTGDSSYARVVGSDAVDSAQSSALCPSLAVVGSDAVDSGTCSSAFAGWEVHTRGIGSRLLTKMGYEFGKGLGRHAEGRVEPIHAVVLPRGKSLDQCVETLQKQTRVGKAGTNKPPRCRGRGARPGGRPAPRNVFDFLNEKLQGQAPGALEAGAAPAGRRSKDMYHASKSAKRALSLRLFQTEEKIERTQRDIRSIQEALARNAGRHSVASAQLQEKLAGAQRQLGQLRAQEAGLQQEQRKADTHKKMTEF [ZGPAT] | 49.3 | 47.5
11 | MDHSHHMGMSYMDSNSTMQPSHHHPTTSASHSHGGGDSSMMMMPMTFYFGFKNVELLFSGLVINTAGEMAGAFVAVFLLAMFYEGLKIARESLLRKSQVSIRYNSMPVPGPNGTILMETHKTVGQQMLSFPHLLQTVLHIIQVVISYFLMLIFMTYNGYLCIAVAAGAGTGYFLFSWKKAVVVDITEHCH [SLC31A1] | 54.9 | 56.5
12 | MEMSGLSFSEMEGCRNLLGLLDNDEIMALCDTVTNRLVQPQDRQDAVHAILAYSQSAEELLRRRKVHREVIFKYLATQGIVIPPATEKHNLIQHAKDYWQKQPQLKLKETPEPVTKTEDIHLFQQQVKEDKKAEKVDFRRLGEEFCHWFFGLLNSQNPFLGPPQDEWGPQHFWHDVKLRFYYNTSEQNVMDYHGAEIVSLRLLSLVKEEFLFLSPNLDSHGLKCASSPHGLVMVGVAGTVHRGNTCLGIFEQIFGLIRCPFVENTWKIKFINLKIMGESSLAPGTLPKPSVKFEQSDLEAFYNVITVCGTNEVRHNVKQASDSGTGDQV [C3ORF38] | 50.9 | 50.4
13 | MEPGTNSFRVEFPDFSSTILQKLNQQRQQGQLCDVSIVVQGHIFRAHKAVLAASSPYFCDQVLLKNSRRIVLPDVMNPRVFENILLSSYTGRLVMPAPEIVSYLTAASFLQMWHVVDKCTEVLEGNPTVLCQKLNHGSDHQSPSSSSYNGLVESFELGSGGHTDFPKAQELRDGENEEESTKDELSSQLTEHEYLPSNSSTEHDRLSTEMASQDGEEGASDSAEFHYTRPMYSKPSIMAHKRWIHVKPERLEQACEGMDVHATYDEHQVTESINTVQTEHTVQPSGVEEDFHIGEKKVEAEFDEQADESNYDEQVDFYGSSMEEFSGERSDGNLIGHRQEAALAAGYSENIEMVTGIKEEASHLGFSATDKLYPCQCGKSFTHKSQRDRHMSMHLGLRPYGCGVCGKKFKMKHHLVGHMKIHTGIKPYECNICAKRFMWRDSFHRHVTSCTKSYEAAKAEQNTTEAN [ZBTB43] | 55 | 
14 | MGAKQSGPAAANGRTRAYSGSDLPSSSSGGANGTAGGGGGARAAAAGRFPAQVPSAHQPSASGGAAAAAAAPAAPAAPRSRSLGGAVGSVASGARAAQSPFSIPNSSSGPYGSQDSVHSSPEDGGGGRDRPVGGSPGGPRLVIGSLPAHLSPHMFGGFKCPVCSKFVSSDEMDLHLVMCLTKPRITYNEDVLSKDAGECAICLEELQQGDTIARLPCLCIYHKGCIDEWFEVNRSCPEHPSD [ZNRF2] | 55.1 | 52.7
15 | MGEFKVHRVRFFNYVPSGIRCVAYNNQSNRLAVSRTDGTVEIYNLSANYFQEKFFPGHESRATEALCWAEGQRLFSAGLNGEIMEYDLQALNIKYAMDAFGGPIWSMAASPSGSQLLVGCEDGSVKLFQITPDKIQFERNFDRQKSRILSLSWHPSGTHIAAGSIDYISVFDVKSGSAVHKMIVDRQYMGVSKRKCIVWGVAFLSDGTIISVDSAGKVQFWDSATGTLVKSHLIANADVQSIAVADQEDSFVVGTAEGTVFHFQLVPVTSNSSEKQWVRTKPFQHHTHDVRTVAHSPTALISGGTDTHLVFRPLMEKVEVKNYDAALRKITFPHRCLISCSKKRQLLLFQFAHHLELWRLGSTVATGKNGDTLPLSKNADHLLHLKTKGPENIICSCISPCGSWIAYSTVSRFFLYRLNYEHDNISLKRVSKMPAFLRSALQILFSEDSTKLFVASNQGALHIVQLSGGSFKHLHAFQPQSGTVEAMCLLAVSPDGNWLAASGTSAGVHVYNVKQLKLHCTVPAYNFPVTAMAIAPNTNNLVIAHSDQQVFEYSIPDKQYTDWSRTVQKQGFHHLWLQRDTPITHISFHPKRPMHILLHDAYMFCIIDKSLPLPNDKTLLYNPFPPTNESDVIRRRTAHAFKISKIYKPLLFMDLLDERTLVAVERPLDDIIAQLPPPIKKKKFGT [UTP4] | 52.3 | 54.3
16 | MGLLDRLSVLLGLKKKEVHVLCLGLDNSGKTTIINKLKPSNAQSQNILPTIGFSIEKFKSSSLSFTVFDMSGQGRYRNLWEHYYKEGQAIIFVIDSSDRLRMVVAKEELDTLLNHPDIKHRRIPILFFANKMDLRDAVTSVKVSQLLCLENIKDKPWHICASDAIKGEGLQEGVDWLQDQIQTVKT [ARL6] | 50.3 | 
17 | MKVLGRSFFWVLFPVLPWAVQAVEHEEVAQRVIKLHRGRGVAAMQSRQWVRDSCRKLSGLLRQKNAVLNKLKTAIGAVEKDVGLSDEEKLFQVHTFEIFQKELNESENSVFQAVYGLQRALQGDYKDVVNMKESSRQRLEALREAAIKEETEYMELLAAEKHQVEALKNMQHQNQSLSMLDEILEDVRKAADRLEEEIEEHAFDDNKSVKGVNFEAVLRVEEEEANSKQNITKREVEDDLGLSMLIDSQNNQYILTKPRDSTIPRADHHFIKDIVTIGMLSLPCGWLCTAIGLPTMFGYIICGVLLGPSGLNSIKSIVQVETLGEFGVFFTLFLVGLEFSPEKLRKVWKISLQGPCYMTLLMIAFGLLWGHLLRIKPTQSVFISTCLSLSSTPLVSRFLMGSARGDKEGDIDYSTVLLGMLVTQDVQLGLFMAVMPTLIQAGASASSSIVVEVLRILVLIGQILFSLAAVFLLCLVIKKYLIGPYYRKLHMESKGNKEILILGISAFIFLMLTVTELLDVSMELGCFLAGALVSSQGPVVTEEIATSIEPIRDFLAIVFFASIGLHVFPTFVAYELTVLVFLTLSVVVMKFLLAALVLSLILPRSSQYIKWIVSAGLAQVSEFSFVLGSRARRAGVISREVYLLILSVTTLSLLLAPVLWRAAITRCVPRPERRSSL [TMCO3] | 52.9 | 54.4
